Reference: the DeepSol protein solubility set

assay: soluble on expression in E. coli; label from the status in PepcDB or PDB records

| Sequence | soluble on expression in E. coli |
| --- | --- |
| LNSPMITIVGTRTMTNYGKKILEEFVPKIIDSGIAVVSGLAKGIDAYAHQLALEKQGTAIAVIGNGTNISYPAENQSIQKRIISDGLLLSEYFPKSRPKQYHFPARNRILAGLTSATLVVEAKERSGSLITAAYATQENRNVLAIPGDLNRNNSNGTNQLIADGAKAVLKIDDILNE | not soluble |
| MSALTLKGTSYKMCTDKMSFVKNPTDTGHGTVVMQVKVPKGAPCKIPVIVADDLTAAINKGILVTVNPIASTNDDEVLIEVNPPFGDSYIIVGTGDSRLTYQWHKEGSSIGK | soluble |
| MGSDKIHHHHHHPVWNPDNGNGTFTNPIMWGDWPDPDVIRVGDDFYFVSTSMHYVPGCPIATSKDLVNWKMAGYAVDRYDEDARYDLKGGDRYLRGSWAATIRHHNGKFYVGFCTPSWEGEGPGHFSICIADDVKGPWERTIFPEYLYDPGLLFDDDGKVYVFHGQGTLYVTELASDAKSVKGEKVKIWDKRFKNAHEFGGGYGMEGAHAYKINGKYYLTCPAGGTEGWQICLRSDNIYGPYEHKLIMNDSGSYPPNGLHQGGMVQLKNGDWWFIIMQDRGPIGRVPHLVPVKWVDGWPMLGSGGKDIITYPKPEVGKTYPFASPATTDEFNTSSLGLQWQWNHNPDNSRWSLKERKGHMRLKASYAESLKTARNTLTQRVQGPSSEATVELDVSGLKDGNVAGFGVFEFPYAYVAVEQTNGEKKIVMCNDGQTIETIDRFEGNKIWIRARVMDVGFRAVFYYSTDGKYFLPIGNELSMGLGLVWTANRFALFNFSKEKAGEDGYTDFNWFRFTNK | not soluble |
| TSSTIFSGVAIYVNGYTDPSAEELRKLMMLHGGQYHVYYSRSKTTHIIATNLPNAKIKELKGEKVIRPEWIVESIKAGRLLSYIPYQLYT | soluble |
| MKFCSLCGATVVQRIPDGDNRLRYVCDACHTVHYQNPRIVAGSLPVWDGQVLLCRRAIAPRLGYWTLPAGFMENGETLAQAAARETEEEANARIGDLQLYTLFDLPHISQVYLFFRAELLDLDFSAGDESLEVRLFDEAEIPWSELAFPTIGRTLECYFSDRREGCFPVRNEAIAPMLASYKKD | not soluble |
| MASEHHEALNLYAVRVARGEGVKQDFARAASLFRRADRCGFNCEPVYDDMVNDFRDKAFGMELVSSKRAFLKALRPETAEARCTVGEAFIGQGDADSLRTGRELLTSAATLGSGKAMYLLGVLCRDGKGVAANAERAFMWFSLAASCGFAKAESERVNAEGKLDDAGRTRAMQLAARWRRQYLAPVCLEHHHHHH | not soluble |
| MGSDKIHHHHHHMRITEMADRVSRTGIGKLAGASHQLHTLNTNERDNSAMAETSIEWTDATWNPVAGCTILTAGCTNCYAMRMAARLEAMGTEKYQGLTRKTGGRAKWTGKVVTDPKSLAIPATWSKPRRVFVNSMSDLFHVDVPADFIRQVWTVMEETPRHTYQILTKRPEVMASVLTRGEFPVLSNVWLGTSVEDSRVLSRLDDLRRVPASIRFVSLEPLIGSVAGANLTDINWAIVGGESGPGARDMDPRWVDEIEAMCRRSGTAFFFKQWGGRNKKATGRTLNGRTYDEMPAAI | not soluble |
| MSEVLITGLRTRAVNVPLAYPVHTAVGTVGTAPLVLIDLATSAGVVGHSYLFAYTPVALKSLKQLLDDMAAMIVNEPLAPVSLEAMLAKRFCLAGYTGLIRMAAAGIDMAAWDALGKVHETPLVKLLGANARPVQAYDSHSLDGVKLATERAVTAAELGFRAVKTRIGYPALDQDLAVVRSIRQAVGDDFGIMVDYNQSLDVPAAIKRSQALQQEGVTWIEEPTLQHDYEGHQRIQSKLNVPVQMGENWLGPEEMFKALSIGACRLAMPDAMKIGGVTGWIRASALAQQFGIPMSSHLFQEISAHLLAATPTAHWLERLDLAGSVIEPTLTFEGGNAVIPDLPGVGIIWREKEIGKYLV | soluble |
| MGSDKIHHHHHHAKKVKGNGDIITKEISVRDYSAIKVGSTAMGYSDSWFSLFSRGGNPSYVFGYTQGESASLRITIDENLYPYINVQVKNEELSISTENGTQLSPTRFKIEGTSKKLEKIKMSGCMDFVLRSALSGDDLEIIATRGSDVKMEQPINVSNCIIEATSGSDIIINDLTTRIIRGRASGGSDLKLTGKAENGEYSASGGSDIKAYDLILNQLECSASGGSDIYTHVTDYIKASASGGSDVHYKGSARSDTSTSGGSDIIKEGN | not soluble |
| MFLVTGATGDIGRRVIRLLREHNHSVRGFARLTSRYGELEHRGANIFIGDLRREQDIEKACQGVQYIISAHGSDNDALTLDYRANIALIDQAKANGVQHFVFISVLGAERGYEDAPVFKAKRAVENYLAASGLNYTILRPAGLASNLLPLAERFRETGLYLLIGDPKNRTSIVSTDDLARIVVDSVTVPEARNQIFSVGGPEILLREDIPQIFSHIFKKEPIVVNSPLLVIDGLRGVLGLINPEAQQALGTFRTLLSNEFFCRKDEIAKLEQTFNFPLETLESFLRRYLAVLEHHHHHH | not soluble |
| MGSDKIHHHHHHMSDSEKEILKRIKDNPFISQRELAEAIGLSRPSVANIISGLIQKEYVMGKAYVLNEDYPIVCIGAANVDRKFYVHKDLVAETSNPVTSTRSIGGVARNIAENLGRLGETVAFLSASGQDSEWEMIKRLSTPFMNLDHVQQFENASTGSYTALISKEGDMTYGLADMEVFDYITPEFLIKRSHLLKKAKCIIVDLNLGKEALNFLCAYTTKHQIKLVITTVSSPKMKNMPDSLHAIDWIITNKDETETYLNLKIESTDDLKIAAKRWNDLGVKNVIVTNGVKELIYRSGEEEIIKSVMPSNSVKDVTGAGDSFCAAVVYSWLNGMSTEDILIAGMVNAKKTIETKYTVRQNLDQQQLYHDMEDYKNGKFTKVY | not soluble |
| MNIDLNADLGEGCASDSELLTLVSSANIACGFHAGDAQTMLTCVREALKNGVAIGAHPSFPDRDNFGRTAMVLPPETVYAQTLYQIGALGAIVQAQGGVMRHVKPHGMLYNQAAKDPHLAQAIAKAVHDYDPSLILVGLAGSELIRAGERHRLVTRQEVFADRGYQADGSLVPRMQPGALIHDEEQALAQTLDMVQAGRVKSVTGVWTTVTAQTVCIHGDGEYALAFARRLRAAFNARNIHVIALEHHHHHH | soluble |
| MGSDKIHHHHHHMQPLAQTLDRIRTISEYLKPEFGIPADGNWVSVADDFVSGSPWLTSMIAAEQTRLRTTSAAIIGSTLLQNYQWPIIPTVVACYLFEQRVPDLAPANTRVHFTAEHQADALALLGGRFSALPDDPAAEHPDATIVPDRAALRDAMRTGIESHFAVVIEHICAALGCKPRGLWLNVADAVANALIWLAQQHAAFDPTQIEAEVEAVIRVPGSPLNNRQVGLIQLSYGENRQLFLRRATCCYWYKTEGGEYCLTCPHRTAEDRQARLLAYMAQKYTQQQQLVQEEVTA | not soluble |
| MSLSDKTMTADEAVSRLRSGMTLGIGGWGSRRKPMALVRALLRSGITDLTVVSCGGPDVGMLAAAGRIRKLVAAFVTLDSIPLEPHYRAARERGALELMEIDEAMFLWGLRAAAGRLPFLPVRAGIGSDVMRVNPGLRTITSPYVDGETFVAMPALRLDAALVHLNRADRLGNGQYLGPDPYFDDLFCEAADTAYVSCERVVDTAELTKEAAPQTLLVKRHTVTGVVEAEGHHHHHH | not soluble |
| MGSDKIHHHHHHMTCKRALTAYPELLSRTVAAPSWVMPGTVRDNAIFLSGEVDEVGLCFFETAACLAYGENDLPEHLADLPLGWHVHLPGDLPWCDGGAEAAVPALRLMDKVAFLGAHRAVLHPPVGFADGAARLVAFVRAWEAAGRNPEDLCLENIRGEDLTGLWRTLCDLGCKVCLDMGHVLSYGQYGLLSLPGLSGRTSMLHANAPGPAGRHLSLDTLDGAGGGVGRAMCALLPDDAVVMVEVFDWEGVRRSLPLLETWFAAQR | not soluble |
| MEFRKEVEVAKILVGGKVEENVVEIRYDPLTLQTSRILKKTIPMQSGDFQEEIDSTRSWCPFCPERIEQMVSRDPEIMEGELWKRGEAVLFSNLTPYSKYSLVLRLTEEHYVPVSEFKSQHFFDAFKLIQEYVKKVPEGKYYVTIGMNYLKPSGSSIMHPHIQVMISEVSTDYFARLDWSALEFKESNGVDYWKKLAEVEKGGERYIGSTDKTEWVAAFAPKGFFHFTGIPEEREFMQMSDEQLKGIAEGIAKILRYYGRKNLNAFNFSMFCADRIGDHFRTNINIVARTPFAKYYWCDVFYPKMFHDESVVFFVPEEYAKEIREIWSEL | not soluble |
| MSLKKLITANDIREAHARGEQAMSVVLRASIITPEAREVADLLGFTITECDESIPVTASVPASVPADKTESQRIRETIIAQLPEGQFTESLVAQLMEKVMKEKQSLEQGAMQPSFKSVTGKGGIKVIDGSSVKFGRFDGAEPHCVGLTDLVTGDDGSSMAAGFMQWENAFFPWTLNYDEIDMVLEGELHVRHEGQTMIAKAGDVMFIPKGSSIEFGTTSSVKFLYVAWPANWQSLEGGSHHHHHH | soluble |
| MAKQDVIELEGTVLDTLPNAMFKVELENGHEILAHVSGKIRMNYIRILPGDKVTVEMSPYDLTRGRITYRYK | not soluble |
| MSALEWYAHKSLGDGIFWIQERFYESGNRANIWLVRGSEQDVVIDTGLGLRSLPEYLYSSGLLQDREAKEDAARRPLLAVATHVHFDHSGGLYQFDRVAVHHAEAEALARGDNFETVTWLSDSEVVRAPSPGWRARQFRVQAVQPTLILQDGDVINLGDRQLTVMHMPGHSRGSICLHDKDRKILFSGDVVYDGSLIDWLPYSRISDYVGTCERLIELVDRGLVEKVLPGHFNTFGAERLFRLASNYISKAGICHKVSTFAMRSLASLALRVTNSRTSP | not soluble |
| MAHHHHHHMIKCLKNNINIWKRVRRNVSYGYYNININEKIHKYFDNIDKKRNIKYISDCKSCKECVDEIKNGNYNLLKDFNMKMIGLDIEGYKIGKYGIVSIIQICYEDIYIFDIYKCDNVYLFINYIKDILECDDIIKVTHDCREDCSILYNQYNIHLKNILDTQVAYNLLLKNNNNYTNTYQISYDDLLKKYLFINNNHKIYFHKMITLDNYIYLKRPIMKELISYAIQDVIYLKPLILCILDKFIIKQKKKEEQEKNKYVNDKQNNKIKQEKFDKTSNTLQSKGNISSFNNQDLYHTKEIIQDIILHSKKYVNYQFLNSHIKDEKELQKGMILEGMVVSCNNTKMYLKLNMRKRGVILNYVQNKYEIGDIVKAVIVNFTRNDYINLGLYDEKILTLDAQKYIPREEVLQNIQKFLLNEEKI | not soluble |
